Measured values reported in PMC2791442, “Three Dimensional Structure of the MqsR:MqsA Complex: A Novel TA Pair Comprised of a Toxin Homologous to RelE and an Antitoxin with Unique Properties” (PLoS Pathogens, 2009).

Tests used:
[1] = molecular target: the molecule itself; assay: SEC + other: dynamic light scattering; co-expressed and co-purified complex on a size exclusion column (Superdex 75 26/60 for MqsR:MqsA-F); oligomeric state confirmed by dynamic light scattering
[2] = molecular target: T1, MqsR (his-tagged), co-expressed with full-length MqsA (E. coli, UniProt Q46865 1-98); assay: as above; conditions: both partners purified
T1 construct: MqsR (YgiU, b3022) toxin of Escherichia coli, 98 residues; also called YgiU; B3022; not shown: His6, N-terminal, kept
T1 sequence (looked up): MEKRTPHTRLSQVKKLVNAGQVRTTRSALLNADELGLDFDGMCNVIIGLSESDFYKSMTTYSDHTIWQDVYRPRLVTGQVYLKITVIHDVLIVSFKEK

[3] = molecular target: the molecule itself; assay: crystal structure; MqsA-F, 2.15 Å, molecular replacement; sitting drop at 4°C, 75 mM Bis-Tris pH 5.5, 150 mM MgCl2, 19% PEG3350; two molecules in the asymmetric unit
[4] = molecular target: T2, MqsR, his6-tag cleaved, co-expressed with MqsA-N (E. coli, UniProt Q46865 1-98); assay: SEC + other: dynamic light scattering; co-expressed and co-purified complex on a size exclusion column (Superdex 75 26/60 for MqsR:MqsA-F); oligomeric state confirmed by dynamic light scattering; conditions: both partners purified
T2 construct: MqsR (YgiU, b3022) toxin of Escherichia coli, 98 residues; 1-97 seen in the first complex of the crystal; also called YgiU; B3022; not shown: His6, N-terminal, cleaved
T2 sequence (looked up): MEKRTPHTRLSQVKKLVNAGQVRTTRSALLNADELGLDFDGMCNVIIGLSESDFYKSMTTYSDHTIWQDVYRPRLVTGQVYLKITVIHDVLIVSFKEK

B1: Full-length MqsA (MqsA-F), untagged, co-expressed with MqsR (natural protein, E. coli, UniProt Q46864 1-131, looked up)
chain: MKCPVCHQGEMVSGIKDIPYTFRGRKTVLKGIHGLYCVHCEESIMNKEESDAFMAQVKAFRASVNAETVAPEFIVKVRKKLSLTQKEASEIFGGGVNAFSRYEKGNAQPHPSTIKLLRVLDKHPELLNEIR
notes: MqsA (YgiT, b3021) antitoxin of Escherichia coli, residues 1-131; Two copies stand in the MqsR:MqsA2:MqsR complex; also called YgiT; B3021; source: co-expressed with his-tagged MqsR, co-purified, SEC
In the case of B1, the binding result [1] is reported as “binds” and the “stoichiometry N” value [2] is reported as 1 MqsA-F per MqsR (2:2 complex).

B2: Full-length MqsA (MqsA-F), his6-tag cleaved (natural protein, E. coli, UniProt Q46864 1-131, looked up)
chain: MKCPVCHQGEMVSGIKDIPYTFRGRKTVLKGIHGLYCVHCEESIMNKEESDAFMAQVKAFRASVNAETVAPEFIVKVRKKLSLTQKEASEIFGGGVNAFSRYEKGNAQPHPSTIKLLRVLDKHPELLNEIR
modifications: Gln108 methylated at N5
notes: MqsA (YgiT, b3021) antitoxin of Escherichia coli, residues 1-131; Modified pET28a with a TEV site; also called YgiT; B3021; source: E. coli One Shot BL21 (DE3), purified (his6-tag, TEV cleavage, subtraction his6-tag, SEC); not shown: His6, N-terminal, cleaved
B2: binds [3].

B3: MqsA N-terminal domain (MqsA-N), untagged, co-expressed with MqsR (domain or fragment, E. coli, UniProt Q46864 1-76, looked up)
chain: MKCPVCHQGEMVSGIKDIPYTFRGRKTVLKGIHGLYCVHCEESIMNKEESDAFMAQVKAFRASVNAETVAPEFIVK
notes: MqsA (YgiT, b3021) antitoxin of Escherichia coli, N-terminal domain, residues 1-76; Untagged pCA21a vector; source: E. coli BL21 (DE3), co-expressed with MqsR, purified (his6-tag of MqsR, thrombin cleavage, subtraction his6-tag, SEC)
In the case of B3, the “stoichiometry N” value [4] is reported as 1 MqsA-N per MqsR (1:1 heterodimer).
